# Assay results as given in IntAct's records for PubMed 12486103.
# B1: Inhibitor of nuclear factor kappa-B kinase subunit alpha (Homo sapiens), O15111 (parent)
# chain: MERPPGLRPGAGGPWEMRERLGTGGFGNVCLYQHRELDLKIAIKSCRLELSTKNRERWCHEIQIMKKLNHANVVKACDVPEELNILIHDVPLLAMEYCSGGDLRKLLNKPENCCGLKESQILSLLSDIGSGIRYLHENKIIHRDLKPENIVLQDVGGKIIHKIIDLGYAKDVDQGSLCTSFVGTLQYLAPELFENKPYTATVDYWSFGTMVFECIAGYRPFLHHLQPFTWHEKIKKKDPKCIFACEEMSGEVRFSSHLPQPNSLCSLVVEPMENWLQLMLNWDPQQRGGPVDLTLKQPRCFVLMDHILNLKIVHILNMTSAKIISFLLPPDESLHSLQSRIERETGINTGSQELLSETGISLDPRKPASQCVLDGVRGCDSYMVYLFDKSKTVYEGPFASRSLSDCVNYIVQDSKIQLPIIQLRKVWAEAVHYVSGLKEDYSRLFQGQRAAMLSLLRYNANLTKMKNTLISASQQLKAKLEFFHKSIQLDLERYSEQMTYGISSEKMLKAWKEMEEKAIHYAEVGVIGYLEDQIMSLHAEIMELQKSPYGRRQGDLMESLEQRAIDLYKQLKHRPSDHSYSDSTEMVKIIVHTVQSQDRVLKELFGHLSKLLGCKQKIIDLLPKVEVALSNIKEADNTVMFMQGKRQKEIWHLLKIACTQSSARSLVGSSLEGAVTPQTSAWLPPTSAEHDHSLSCVVTPQDGETSAQMIEENLNCLGHLSTIIHEANEEQGNSMMNLDWSWLTE
# B2: Inhibitor of nuclear factor kappa-B kinase subunit beta (Homo sapiens), O14920 (parent)
# chain: MSWSPSLTTQTCGAWEMKERLGTGGFGNVIRWHNQETGEQIAIKQCRQELSPRNRERWCLEIQIMRRLTHPNVVAARDVPEGMQNLAPNDLPLLAMEYCQGGDLRKYLNQFENCCGLREGAILTLLSDIASALRYLHENRIIHRDLKPENIVLQQGEQRLIHKIIDLGYAKELDQGSLCTSFVGTLQYLAPELLEQQKYTVTVDYWSFGTLAFECITGFRPFLPNWQPVQWHSKVRQKSEVDIVVSEDLNGTVKFSSSLPYPNNLNSVLAERLEKWLQLMLMWHPRQRGTDPTYGPNGCFKALDDILNLKLVHILNMVTGTIHTYPVTEDESLQSLKARIQQDTGIPEEDQELLQEAGLALIPDKPATQCISDGKLNEGHTLDMDLVFLFDNSKITYETQISPRPQPESVSCILQEPKRNLAFFQLRKVWGQVWHSIQTLKEDCNRLQQGQRAAMMNLLRNNSCLSKMKNSMASMSQQLKAKLDFFKTSIQIDLEKYSEQTEFGITSDKLLLAWREMEQAVELCGRENEVKLLVERMMALQTDIVDLQRSPMGRKQGGTLDDLEEQARELYRRLREKPRDQRTEGDSQEMVRLLLQAIQSFEKKVRVIYTQLSKTVVCKQKALELLPKVEEVVSLMNEDEKTVVRLQEKRQKELWNLLKIACSKVRGPVSGSPDSMNASRLSQPGQLMSQPSTASNSLPEPAKKSEELVAEAHNLCTLLENAIQDTVREQDQSFTALDWSWLQTEEEEHSCLEQAS
# Variants of: B1
# Details: with ikba_human NFKBIA
row,effect of a mutation on the interaction,Variant
1,disrupting interaction,K44M

# Variants of: B2
# Details: with ikba_human NFKBIA
row,effect of a mutation on the interaction,Variant
1,decreasing interaction,K44A
